From US20190184028A1 (Janssen / Centocor, published 2019)

Molecular target: T1, epidermal growth factor receptor (EGFR) (human, UniProt P00533 25-1210)
T1 construct: whole, on cells; The cell assays use human tumour lines; also called hEGFR
Experiment: flow cytometry on H292 cells
Experimental: To determine the activity of the recently created FN3 domain molecule-SPION, cell targeting assays were set-up in vitro. H292 cells were dissociated from a T-150 cell culture flask using Hank's Enzyme free dissociation buffer (Invitrogen—13150-016). The cells and dissociation buffer were incubated for 15 minutes in a cell incubator. The flask was gently tapped to dissociate any residually bound cells and the buffer and cells were transferred to a 15 mL conical tube. The cells were spun at 1,000 rcf for 2 minutes. The supernatant was gently removed with careful consideration paid to not disturbing the pelleted cells. The cell pellet left over was reconstituted in 1.5 mL of phenol-red free RPMI 1640 media with 10% FBS. It was determined that the suspension contained approximately […]. 100 μL of this suspension was added to each well of a 96-well plate. FN3 domain molecule-SPION sample concentrations are listed above. From these known concentrations, FN3 domain molecule-SPION was added to each well so that the final concentration of FN3 domain molecule-SPION with the cells was 100 μg/mL Fe. Samples were plated in triplicate and incubated for 30 minutes and then purified via 3× centrifugation at 1,000×rcf and resuspension in dPBS pH 7.2. Samples were suspended in a final volume of 300 μL and moved to a clear, flat bottom 96-well plate for analysis on the Guava HTS flow cytometer. A total of 8,000 cells were counted for each sample. Following flow, population samples were analyzed using FlowJo. Each sample was gated so that only live cells were assessed for fluorescence. Histograms were obtained wherein the black peak (the peak to the left side of the graph) is the autofluorescence obtained from unlabeled H292 cells. The blue peak (the peak to the right side of the graph) corresponds to the sample title above the histogram. 83v10, 83v12 and 83v15 are positively shifted compared to the tencon25 control or blank cells (FIGS. 1A-1D). […] All samples were normalized by subtracting the blank cell autofluorescence from the mean fluorescent intensities of each sample. […]

binding result	Binder
binds	83v10-SPION (designed binder, Cys 15 coupled to a superparamagnetic iron oxide nanoparticle (SPION), Cysteine variant of the EGFR-targeting FN3 domain P54AR4-83v2, many copies on a nanoparticle (50:1 molar ratio in the reaction); also called 83v10 = E15C) MLPAPKNLVVSEVTCDSARLSWDDPWAFYESFLIQYQESEKVGEAIVLTVPGSERSYDLTGLKPGTEYTVSIYGVHNVYKDTNMRGLPLSAIFTTGGHHHHHH
binds	83v12-SPION (designed binder, Cys 19 coupled to a superparamagnetic iron oxide nanoparticle (SPION), Cysteine variant of P54AR4-83v2 on a nanoparticle; also called 83v12 = R19C) MLPAPKNLVVSEVTEDSACLSWDDPWAFYESFLIQYQESEKVGEAIVLTVPGSERSYDLTGLKPGTEYTVSIYGVHNVYKDTNMRGLPLSAIFTTGGHHHHHH
binds	83v15-SPION (designed binder, C-terminal Cys coupled to a superparamagnetic iron oxide nanoparticle (SPION), Cysteine variant of P54AR4-83v2 on a nanoparticle; also called 83v15 = C-terminal) MLPAPKNLVVSEVTEDSARLSWDDPWAFYESFLIQYQESEKVGEAIVLTVPGSERSYDLTGLKPGTEYTVSIYGVHNVYKDTNMRGLPLSAIFTTGGHHHHHHC

Molecular target: T1, epidermal growth factor receptor (EGFR)
Experiment: table column 'Binding antigen'; no assay given

binding result	Binder
binds	EEB9 PEG4-MMAF conjugate (designed binder, Iodoacetyl-PEG4-MMAF on cysteines; 2 MMAF after conjugation, Bivalent P155R8-G3 with ABDcon12) MLPAPKNLVVSRVTEDSARLSWTAPDAAFDSFQIYYSELLSYGEAIVLTVPGSERSYDLTGLCPGTEYTVSINGVKGGTRSWSLSAIFTTAPAPAPAPAPLPAPKNLVVSRVTEDSARLSWTAPDAAFDSFQIYYSELLSYGEAIVLTVPGSERSYDLTGLCPGTEYTVSINGVKGGTRSWSLSAIFTTAPAPAPAPAPTIDEWLLKEAKEKAIEELKKAGITSDYYFDLINKAKTVEGVNALKDEILKA
binds	EEB10 PEG4-MMAF conjugate (designed binder, Iodoacetyl-PEG4-MMAF on cysteines; 4 MMAF after conjugation, Bivalent P155R8-G3 with ABDcon12) MLPAPKNLVVSRVTEDSARLSWTAPDAAFDSFQIYYSELLSYGEAIVLTVPGSERSYDLTGLCPGTEYTVSINGVKGGTRSWSLSAIFTTAPCPAPAPAPLPAPKNLVVSRVTEDSARLSWTAPDAAFDSFQIYYSELLSYGEAIVLTVPGSERSYDLTGLCPGTEYTVSINGVKGGTRSWSLSAIFTTAPCPAPAPAPTIDEWLLKEAKEKAIEELKKAGITSDYYFDLINKAKTVEGVNALKDEILKA
binds	EEB11 PEG4-MMAF conjugate (designed binder, Iodoacetyl-PEG4-MMAF on cysteines; 3 MMAF after conjugation, Bivalent P155R8-G3 with ABDcon12) MLPAPKNLVVSRVTEDSARLSWTAPDAAFDSFQIYYSELLSYGEAIVLTVPGSERSYDLTGLCPGTEYTVSINGVKGGTRSWSLSAIFTTAPCPAPAPAPLPAPKNLVVSRVTEDSARLSWTAPDAAFDSFQIYYSELLSYGEAIVLTVPGSERSYDLTGLCPGTEYTVSINGVKGGTRSWSLSAIFTTAPAPAPAPAPTIDEWLLKEAKEKAIEELKKAGITSDYYFDLINKAKTVEGVNALKDEILKA
binds	EEB8 PEG4-MMAF conjugate (designed binder, Iodoacetyl-PEG4-MMAF on cysteine; 1 MMAF after conjugation) MLPAPKNLVVSRVTEDSARLSWTAPDAAFDSFQIYYSELLSYGEAIVLTVPGSERSYDLTGLCPGTEYTVSINGVKGGTRSWSLSAIFTTAPAPAPAPAPLPAPKNLVVSRVTEDSARLSWTAPDAAFDSFQIYYSELLSYGEAIVLTVPGSERSYDLTGLKPGTEYTVSINGVKGGTRSWSLSAIFTTAPAPAPAPAPTIDEWLLKEAKEKAIEELKKAGITSDYYFDLINKAKTVEGVNALKDEILKA
